The text below walks through data of the NTF2 design screens of Basanta et al. (2020).

A short description of this data set: protease stability score; higher = more stable; yeast display proteolysis, trypsin and chymotrypsin.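 Note: relative to predicted unfolded state with 0 unfolded-like and 1 meaning tenfold more protease.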
In turn, “DDDEHDTEKLLTFYSHAERTGDEELLRHLFDPDVKLYIGDKLFIGWRLFKERFRRWVEELGINHIEVHLHRYRIQGDKIDMDTRLELRYDGRTEHVESHVIVRKVDGRWNFERMHFN” came in with a protease stability score of 0.745.

“SEDDEHLREFIEIRLHAIETGDWRRMEHLFDPNVRFEFNGVELHGMETVARRLSRIDHEWSEIRINRHRLFNGVLHLDTRLDLRVHVDGKEIRVEHTTRIVILKFNGRWLITEMTIE” displayed a protease stability score of 0.748.

For the sequence “DEDREAAEFVVEHLLRALSTGNEEEFLSLLDPTVKWEIDGREYHGRELVSKILHEIRIKTTEFRSTRHEYQGDYLKLDGILHTTVEIDGKRKHLDVNLHMLILKYDGRWLLKSMSVR”, the protease stability score was 1.53.

Consider “SEDEKISEEALRRWVHHNRTGNEQDYVRMADPDTKIEIGDKEFHGREEFVKLARDYGFKHYHLKDNDVIGDKIRIDGIVEFNGQRWEMILYFVKYDGRWSIKSIHIK”, for which the protease stability score stood at 1.45.

Sequence “TEDEELAKLVSEILLHIMETGDEDKLSKMADPHVRVNINGRERHGWRNMVRVLHETIRNLGIEIKSVHIRDLKIQGDKIRVTMEIDYQQGDKRNEWSSHLIIIKIDGRWHLHAFELN” registered a protease stability score of 1.26.

For the sequence “SEEETRLEKYLRILLEMWKTGNEEWMFKYADPDARLQVGDKEFHGREHIMKFLKDWLDKAGVKHEEDRREEYIGDKLRVDSERNVNGVENRVILIFVVINGRYREFIIIIR”, the protease stability score is 1.47.

For the sequence “SEDEHDSELALRIFIQEVYTGDWKRLADNMDPNVRLEINGVENHGRELAIKNLRRRLEELGVKVSDLKIDDIKVQGDKVNLDGQLNLHVNGRTIIINTEVIFRKVDGRWIIESIRYE”, the protease stability score was determined as 1.7.

On to “SEKTHEFQKLYHEWIRVEWTGDFHMLSHMADPNTRVELIINGRTVERIGREDMIELVRRLKHEIRFHDFDIKRVRIQGEKIYADTHEDGEINGQRRETDAKLELDVYNGKIESVFWYIE”, for which the protease stability score is 1.13.

The sequence “SELEELMHKFAKLFIHLWETGNEELLTKMADPNTRLIINGREVIGMERLLEVFHYIKTEIRLDTMRLEHIDWQGNKAHSHTRLHGEFNGRRHEDESEIHIRVIDGRVHTFEIRFK” showed a protease stability score of 1.2.

“DEDFEYALRVAKLFWEAVFTGDEKTLEHLLDPNVRIDINGRHIHGREELIKLFHEIRIHMHEIRIDDIRVQGNYLLVHGHVILEVNINGRTTRIETEVRIEISKVNGRWIIRQSEHT” showed a protease stability score of 2.08.

“DEHERLAEIALRLYVHDIRTGDEHRLRKLFDPHVRFVIGDKVYHGWEEMKWILEHIRRELGVKHIKDEDSRHVHLQGDKMYTELRLHVNQGDYETELEVFMVSVKVNGQWLTHSFELR” had a protease stability score of 1.21.

With “DIEERDAEEAVRRWLHFLQTGDEDWLREQLDPNTRIDIDGREIHGMEEVVNVLLRESRHLGVDVLSFELRHVDRQGDKIIVYGRIRLRVNGRDTEIEVILYMVKVNGVWLMKSMEFR”, the protease stability score was 1.89.

The sequence “DEDDEMWRELFEMYIRLARTGDEKADELLMDPDARIEIGDKRWHGREWTHFFLERVDHVHRVEFRVDDRRIQGDKVDVDGTFILDIHQGDKRIHTSIRSHLTVLKVDGKWRVHQMELR” yielded a protease stability score of 1.73.

For the sequence “DKEDREAHFLARLFLKIEETGDEETMHKYFDPHVRWIQGDWHMHGREDIIEFVRHMGVTIQMHDHEDIKVFDGRVQIKGHKRVNINGKQFEISVRIDINVINGRIRKVQIDEK”, the protease stability score worked out at 1.32.

“SEDEHKLRTMLELWLEAHRTGDEDLLRKLMDPDVRIHVGDKDFHGWDHEIELFRKELKRLGIDKIDIEVKRIDLQGDKVILEVIVHINGKEIHMIIYANKFNGRWHVKQIEIR”: the protease stability score was 1.35.

In turn, “DESAVNNLVRLAKAWLRGDPKKIEHLVDKDAKAQIGDKTLHGREDLKDHADELRKDMTVDVKSVTNNNQNGQAVVDVKFEADRNGRPETHTLDAKATAHNGDIVDVKIHQDG” displayed a protease stability score of -0.049.

Sequence “DEDHKRVREMTDILIELLVTGNEDLLLKLMDPHARERIGDWHSHGRESFVKLLQDLLERIKNVRIEIKDMRIRIYNGVAHSHIDGNNIYNGREIKALWILIIEKINGRWIVHSIELETE” returned a protease stability score of 1.45.

“DTIERFVRHSFNLFVKQLETGDEHTLEKMADPHVRLEYGDKEYHGREEFKRQMHEIRFKRLELKRIEIQGEWAIMHGEDDGHFNGVDMKLESTEIAVKVNGRWYLKSFILK” gave a protease stability score of 1.41.

With “DETEEDARHFVELWRRDMITGDEDRIKEMADPNVRVIIGDKNLHGREDMTEVLRHLRIHRVNVHSIHVQGDWVHITTEVDGRIGDKRHELEVHILTRKVNGRWQLQTLEIG”, the protease stability score was 1.12.

In turn, “SEDEEYIRELMKLIAQITQTGDEELFRRLVDPHTRLVQGDKQYHGWHAFRVFLEEMRIKSVRVEVRRIEIQGEYVHVDTHWQLHVHYNGRDIDLHIDVRNIVHKVNGRWIIRHIHVE” returned a protease stability score of 0.986.

As to “DEARVIFEEFIRQLLHAIRTGDFDLYRHLADPHVQVEIGDKVFWGREVITEFEDDLLRRMGVNHVDMRIRIFEIIDGRIHIVGEHRIDVNGRDEHIDTRVLVHKVDGRWVLRRERRT”, the protease stability score is 0.647.

“DHQEESRSKFLNDILRIQRTGDFEKIYENVDPDVRIHIGDKEWHGREQATKVLTEWRVEHFDLKSMHIQGDKVHIHGHMIYNINGQERRSDIEIVLLKFNGRWFIHSMRID” had a protease stability score of 1.67.

In turn, “DEEDEELRRLLELLLRLYMTGDEHTLQTLADPHMKVRFHWDGREIRDHGRDALERHLKEWRVNDMDVNHFEAFNGRNMIDGILDGIINGVERRHKLELHFDLVNGRVKSVEIVLR” yielded a protease stability score of 1.08.

Sequence “DQEHEDARNVLHLLIRSWRTGDEHTSEHLMDPDVKIIYNGRVHVGREDAHRFVEEARVHHIVLHDSRVQGDYIRLDIRVEGEINGRRDRTEVDMVVLKINGRWMIQSIKFK” registered a protease stability score of 1.38.

In turn, “DHDEKVSKEVLHEFLHVLRTGNWDHLIKNIDPNARLEVDGVDIHGRENVHKFLDEFHKRMGVDHHELHDEKMTIIDGVLQIDLDTTTEFNGRRFKTTIHLFVLKINGRWTFKTLIIKHE” came in with a protease stability score of 2.03.

In turn, “DEEEKHDTFMTEIFKEIYQTGDEDALATMADPDTRLIIRIGDYTEENHGWKFFIEKLMRLIRKVKNLRYIETRDHVFDGQSHIHGILIINGRKREVEIIIYIFDGRIKSIEIRIV” registered a protease stability score of 1.79.

Turning to “DDEEEEEEKFRKILEEALETGDERILHHFADPHVQTHFNGQTFHGREEWIKILRKLGVERVHLNIKRVEVYGDKIHIDGELHFDGRTHKVELVALKVDGRWLLHKIVIR”, the protease stability score came out at 1.68.

“HDDHESADKFIREEIEYQRTGDWHRFEELLDPDVRLEQGNYHAHGREEVSTIFLMHLTRVKNMRMEVTRMEIINGRLSLHLKLDFNGREFHFSTIVQKVNGKWIIKAEHFI”: the protease stability score was found to be 0.507.

Consider “DEDEKYVREVFRRFVEAVITGNEEELLELIDPHVRVLINGVDNMGREKWSEWMKRYGFRVHHVRIDDEDLINGVARLDTTEDVEYDGRRDTRHSHIIINKVDGRWHIERLEFR”, for which the protease stability score turned out to be 1.01.

On to “DDFDRNIEKLMKDLLHNWRTGNEDEFLRLIDPNARLTVGDYESHGREEYARVLRELLEEMRLHQVHIRHVEYFDGQADIDIREDGFINGQRIILTTRIIVVKVNGRWVVKSHVIN”, for which the protease stability score amounted to 0.967.

In turn, “DEDEERAKKLAEDTLHSWRTGNEEHMIKLADPNVRVEWNGKDFVGREEFKRSVHKMLRDLGVDNIEVRLDHIEVDEDHAIVYGEVIYNGRISQIEWVFRKVNGRWYLHRMHIRDR” had a protease stability score of 1.54.

In turn, “DEHEEFLHRWAEQFLKNMITGDFDRLHELLDPHVRWRIGDKDSIGWKTIIDVVKDLLREIRIEDVTLHRIEVQGDKSIIVITTIVEIDGRRYRTTVIIRMRIIDGRLKSVDVEER” displayed a protease stability score of 1.31.

Sequence “SEEEHITKLALDMWFTSLLTGDEHTFRHLLDPNVRVHIDGREYHGREHWRDLLTYLLTHLGVDHMEFRTRDQDVVGDKITLVTEIIIHVGDKNLSFESELIVAKVDGRWRIRSEDYR” gave a protease stability score of 0.645.

As to “DHQEKRTTEANEMFREAIETGDEKTLTRLVDPNVKIIVGDKRYHGREWFLHLMLHEILHLRVRIHTEDYRVVDGRIEFITHLEIEIGDKTVRRETFVFVDKINGRWLYQSFQDG”, the protease stability score came out at 0.773.

“TEEEEDLKEVLRVELETWHTGNWDEMRRLLDPHARLIFDGQTFHGRELAVKFFQELLTRFDVLHIIPQSVSVYNGRVEIHEEMHEVVDGQTIRRTYHVRSSKINGRWSVEVLVIQ” yielded a protease stability score of 0.443.

In turn, “DEEESRIEKVNRRWLRAYATGDEDTLNHLIDPRVRMDIDGVDLHGREEFEEWLRRIDVIRTFELKFMHIQGEKVNNDVQFDTRIDGQNRSVRNKLIIEKVDGKWVVKTIHFI” had a protease stability score of 0.228.

Sequence “HSDEEKSRRATKWFIKIFHTGDEDRFHELADPNTRVIIGDKDFIGREKAVDAIHRIWEHLGIDVYDVEDIRIINGVVEVDTSFHINGRTIKTTTRIEKVNGQWVVDEVHFK” showed a protease stability score of 1.23.

On to “SEHKEEVHEMIKLFLEALRTGDEDWLKTMIDPNDRIRVGDKELHGREEFDKIVHFFKNARIHLHHYSVINGRVTIHMILHFNGKTFEIHIYAEKVDGRWRHRESEMHER”, for which the protease stability score is 1.38.

Sequence “DQRERDQHIALEIWLLVLETGDERYVRRYADPRMRIEVGDKEIHGREDALEFRTEELRHMRLRDFRNKSFTVIDGRVDFYGHLLIEVDGRSQIFDSRLIILKVNGRWFLESEIRH” had a protease stability score of 1.43.

Turning to “DEHDEMSQIASEILRTVIETGNENELERMVDPHVKSIVNGRTHHGRETLSELKKKLGWERVHNRIHHVEIVGDKVVVRGSIHWNGRDVRVEFIITKVDGRWIIEEIRFH”, the protease stability score was found to be 1.07.

As to “SEVQETIDHLVREVLHDFRTGDERRLEENMDPNAKSIFDGRESHGREKVSKMIHDFLEEMGFKHMELKEREVVGNKVEIHGRVIIGDKEFELHLHSQKIDGRWVLDSIRIE”, the protease stability score amounted to 0.52.

In the case of “SEDEEQAEHFLRLLVEALVTGDEDKIMKLIDPNVRLEAEGHDHHGRELFVKFWMELRVKEVQIEDVKLWNGRVRFDVRFDGTFNGKRFESTSHIILTKINGKWVLKKVEMR”, the protease stability score was 0.106.

Regarding “RELERDSTELIKMWLRHLETGDEDVISELIDPNVKVDINGQDHHGREDATEWAMRVKNMTIIVRHLEFQGEKAFVTTEVRVNGKTVHVIVRSLKVDGRWRLESLEVHSE”, the protease stability score was determined as 1.59.

The sequence “SEAEERAEKFIELLTKALLTGDWRMISRMFDPHVRIIIGDKESHGMESLRDTLEHLRFDHINTRIEHVQVQGDWVEIHIRVHMRITVDGKEFHVETQMHYVLIKIDGKWVVREIEIR” displayed a protease stability score of 2.44.

“DEDTDWIREMHRRHTEALRTGDEDTLRDLMDPHVRIFQGDKIHIGMHDLAKFLKEWRIKEIRVDIKHIESQGDKLRFSGDVEVHFEFNGKEVDLKLKALIVIVKINGKWVFKEIHHI” registered a protease stability score of 0.862.

For the sequence “SEDEQHLRRMLKVWDTAVKTGDEHLLDRLADPDVRIDINGVELHGREELERMLKQMRIEFEDSDLNHVHIQGDKIHADTEVVVIIIINGREERRRLRIESIVWKVNGRWHFKEFRFK”, the protease stability score was 1.4.

Consider “SEEEELRHELAHRWLRAFETGNFHMLLELFDPNTYFEVGDKKFHGREEVSKLLEEIWEHIRFEHVKVREVRLQGDKLHIDGETDGRVNGRDEKRKVEFEVTVINGVIHSVIIRIK”, for which the protease stability score was 2.46.
